Results as given in PMC5658604.

Tests used:
[1] = test system: TtSmtB (Thermus thermophilus HB27); test: EMSA; settings: cooperative, EMSA as in Fiorentino et al., 2007 (buffer not given here), 0-15 uM protein, 1 nM probe in the competition assay, footprinting in binding buffer, DNase I 1 min …
[2] = target: T1, TtSmtB (Thermus thermophilus HB27) (UniProt Q72KG0); test: EMSA; settings: EMSA as in Fiorentino et al., 2007 (buffer not given here), 0-15 uM protein, 1 nM probe in the competition assay; footprinting in binding buffer, DNase I 1 min …
T1 sequence: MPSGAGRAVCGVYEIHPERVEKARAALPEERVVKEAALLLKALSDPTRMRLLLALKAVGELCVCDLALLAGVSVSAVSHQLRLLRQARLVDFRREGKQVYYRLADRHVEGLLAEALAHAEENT

[3] = target: T1, TtSmtB (Thermus thermophilus HB27); test: DNase I footprinting; settings: EMSA as in Fiorentino et al., 2007 (buffer not given here), 0-15 uM protein, 1 nM probe in the competition assay, DNase I 1 min …
[4] = target: T1, TtSmtB (Thermus thermophilus HB27); test: competition; settings: EMSA as in Fiorentino et al., 2007 (buffer not given here), 0-15 uM protein, 1 nM probe in the competition assay; footprinting in binding buffer, DNase I 1 min …

TtsmtBp (TtsmtB promoter)
Kd ([1]; multiple complexes): 5 µM

0354p (TTC0354 promoter)
Kd ([1]; apparent, Hill fit): 1.4 µM

AGAGGACGAGGACCCGCATCCTCCAAAGCCTAGCCCCCCTTCGGTCAGGGGGAGATCATGCGCTCAAGCTGGGCCACC (double strand) [TtarsCp (TtarsC promoter)]
binding [2]: binds

CGCCTCGCCGACCGGCACGTGGAGGGCCTGTTGGCGGAGGCCCTGGCCCACGCGGAAGAAAACACTTGACCAGTTGCTCAAATGATGCTACCCTGGGGGCATGAAGGCTCCCAGAGTGCGCGTCTTCCGGGTAGAGGGCATGG (double strand) [0354p (TTC0354 promoter)]
Kd [2]: 1.4 µM
binding [3]: binds
binding [4]: binds

CTCCTTGACCACCCTCTCCTCGGGCAGGGCGGCCCGGGCCTTCTCCACCCTTTCCGGGTGGATCTCGTAGACCCCGCAGACCGCCCTACCAGCCCCGCTTGGCAAGCCTTTCCTCCTCCTTGAGCTGGTCCAGGTTGATGCCCACCATG (double strand) [TtsmtBp (TtsmtB promoter)]
Kd [2]: 5 µM
